This is an account of results in paper doi:10.1101/2025.10.28.685041.

For the assay, the target named is Rhs2 C-terminal toxin domain (Rhs2CT), His6 tag removed, as in the Rhs2CT-RhsI2-EF-Tu complex (Serratia marcescens Db10). The assay is described as follows: SEC.

“E. coli elongation factor thermo-unstable (EF-Tu) (from UniProt P0CE47 1-394) (natural protein)” displayed a stoichiometry N of 1.

Substance “RhsI2 immunity protein, untagged (natural protein)” yielded a stoichiometry N of 1.
